Results on 67 sequences are retold here after the supplement of paper PMC10724198.

For data set [1], the system named is Saccharomyces cerevisiae. In words: protein stability index of tFT-peptide fusion in wild type (PSI (0-1 scale)); higher = more stable (slower turnover). Conditions: genetic background: wild type.
For data set [2], the system named is Saccharomyces cerevisiae. In words: protein stability index of tFT-peptide fusion in deletion strain of DOA10 (PSI (0-1 scale)); higher = more stable (slower turnover). How it is done: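 MPS profiling in S. cerevisiae of two library types built from selected 12-aa C-degron peptides (IN1, IN2, LN1, LN3, VN2, R1-R5, W1-W3, Atg1 and Rpa12 C-termini): saturation mutagenesis libraries and C-terminal +1 capping libraries (13 aa). Each peptide is fused to the C-terminus of a sfGFP-mCherry timer, after a GGGS linker. Cells are FACS-sorted into 8 mCherry/sfGFP bins and sequenced. PSI runs from 0 (unstable) to 1 (stable), measured once in wild type and in the das1Δ or doa10Δ background.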

For data set [3], the system named is Saccharomyces cerevisiae. In words: protein stability index of tFT-peptide fusion in deletion strain of DAS1 (PSI (0-1 scale)); higher = more stable (slower turnover).
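Throughout, for protein stability index of tFT-peptide fusion in deletion strain of DAS1: PSI is a weighted mean of each variant's read distribution over the sorted stability bins, computed only for variants having over 10 reads in total.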
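Throughout, for protein stability index of tFT-peptide fusion in deletion strain of DOA10: PSI per variant is the weighted mean of its sequencing read distribution over the sorted stability bins, counting only variants with over 10 reads summed across bins.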
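Throughout, for protein stability index of tFT-peptide fusion in wild type: PSI derived as read-weighted mean over the 8 sorting bins, only variants exceeding 10 total reads kept, mCherry placed adjacent to the peptide and sfGFP distal.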

AETLPMCPLLLR: the protein stability index amounted to 0.55 in the data set on Saccharomyces cerevisiae [1] and 0.697 in the data set with Saccharomyces cerevisiae [2].

For the sequence AHTLPMCPLLLR, the values for the protein stability index with Saccharomyces cerevisiae [1] and in the data set on Saccharomyces cerevisiae [2] were 0.346 and 0.664, respectively.

For the sequence AIILPMCPLLLR, the results for the protein stability index in the data set on Saccharomyces cerevisiae [1] and in the data set on Saccharomyces cerevisiae [2] were 0.277 and 0.617, respectively.

As to AIPLPMCPLLLR, the values for the protein stability index with Saccharomyces cerevisiae [1] and in the data set on Saccharomyces cerevisiae [2] were 0.28 and 0.653, respectively.

For AITLAMCPLLLR, the protein stability index stood at 0.418 in the data set on Saccharomyces cerevisiae [1] and 0.65 with Saccharomyces cerevisiae [2].

With AITLKMCPLLLR, the figures for the protein stability index in the data set with Saccharomyces cerevisiae [1] and in the data set with Saccharomyces cerevisiae [2] were 0.296 and 0.624, respectively.

Consider AITLLMCPLLLR, for which the protein stability index with Saccharomyces cerevisiae [1] was found to be 0.37; in the data set on Saccharomyces cerevisiae [2] it was 0.629.

For AITLPLCPLLLR, the protein stability index with Saccharomyces cerevisiae [1] worked out at 0.19; with Saccharomyces cerevisiae [2] it was 0.647.

Turning to AITLPMCGLLLR, the results for the protein stability index in the data set with Saccharomyces cerevisiae [1] and with Saccharomyces cerevisiae [2] were 0.243 and 0.63, respectively.

For AITLPMCILLLR, the protein stability index in the data set with Saccharomyces cerevisiae [1] was 0.091; in the data set on Saccharomyces cerevisiae [2], 0.603.

Take AITLPMCMLLLR: the protein stability index in the data set with Saccharomyces cerevisiae [1] is 0.133; in the data set on Saccharomyces cerevisiae [2], 0.651.

AITLPMCPDLLR: the protein stability index in the data set on Saccharomyces cerevisiae [1] came to 0.669; with Saccharomyces cerevisiae [2], 0.677.

With AITLPMCPLLDR, the results for the protein stability index with Saccharomyces cerevisiae [1] and with Saccharomyces cerevisiae [2] were 0.655 and 0.7, respectively.

AITLPMCPLLFR: the protein stability index was found to be 0.27 in the data set on Saccharomyces cerevisiae [1] and 0.669 with Saccharomyces cerevisiae [2].

Consider AITLPMCPLLLA, for which the figures for the protein stability index in the data set on Saccharomyces cerevisiae [1] and with Saccharomyces cerevisiae [2] were 0.269 and 0.313, respectively.

As to AITLPMCPLLLE, the protein stability index in the data set with Saccharomyces cerevisiae [1] came to 0.618; in the data set with Saccharomyces cerevisiae [2], 0.652.

AITLPMCPLLLG: the protein stability index in the data set with Saccharomyces cerevisiae [1] turned out to be 0.509; in the data set on Saccharomyces cerevisiae [2] it was 0.544.

As for AITLPMCPLLLRP, the protein stability index with Saccharomyces cerevisiae [1] came out at 0.281; in the data set with Saccharomyces cerevisiae [2], 0.636.

With AITLPMCPLLLRW, the figures for the protein stability index with Saccharomyces cerevisiae [1] and with Saccharomyces cerevisiae [2] were 0.0872 and 0.621, respectively.

Regarding RDKRNHLIKLLN, the values for the protein stability index with Saccharomyces cerevisiae [1] and with Saccharomyces cerevisiae [3] were 0.1 and 0.612, respectively.

Take RKILRQKMNHQN: the protein stability index in the data set with Saccharomyces cerevisiae [1] was 0.162; with Saccharomyces cerevisiae [3], 0.69.

As to RLIKPLPVQFLN, the protein stability index was 0.0432 in the data set on Saccharomyces cerevisiae [1] and 0.627 with Saccharomyces cerevisiae [3].

On to RLIQPLIVQFLN, for which the protein stability index in the data set on Saccharomyces cerevisiae [1] was found to be 0.0468; in the data set on Saccharomyces cerevisiae [3], 0.542.

Consider RLIQPLMVQFLN, for which the protein stability index is 0.0988 with Saccharomyces cerevisiae [1] and 0.598 with Saccharomyces cerevisiae [3].

Consider RLIQPLPEQFLN, for which the protein stability index amounted to 0.29 in the data set on Saccharomyces cerevisiae [1] and 0.592 with Saccharomyces cerevisiae [3].

In the case of RLIQPLPVDFLN, the values for the protein stability index in the data set with Saccharomyces cerevisiae [1] and in the data set on Saccharomyces cerevisiae [3] were 0.716 and 0.624, respectively.

For RLIQPLPVIFLN, the protein stability index in the data set on Saccharomyces cerevisiae [1] stood at 0.138; with Saccharomyces cerevisiae [3], 0.548.

Turning to RLIQPLPVNFLN, the protein stability index with Saccharomyces cerevisiae [1] was 0.0915; in the data set on Saccharomyces cerevisiae [3] it was 0.579.

With RLIQPLPVPFLN, the protein stability index in the data set on Saccharomyces cerevisiae [1] turned out to be 0.313; with Saccharomyces cerevisiae [3], 0.607.

Consider RLIQPLPVQFLG, for which the protein stability index with Saccharomyces cerevisiae [1] is 0.35; in the data set with Saccharomyces cerevisiae [3], 0.6.

Regarding RLIQPLPVQFLH, the values for the protein stability index in the data set with Saccharomyces cerevisiae [1] and with Saccharomyces cerevisiae [3] were 0.301 and 0.582, respectively.

For the sequence RLIQPLPVQFLK, the protein stability index is 0.613 in the data set on Saccharomyces cerevisiae [1] and 0.881 with Saccharomyces cerevisiae [3].

Turning to RLIQPLPVQFLM, the results for the protein stability index in the data set with Saccharomyces cerevisiae [1] and in the data set with Saccharomyces cerevisiae [3] were 0.13 and 0.595, respectively.

On to RLIQPLPVQFLNA, for which the protein stability index in the data set on Saccharomyces cerevisiae [1] was 0.545; with Saccharomyces cerevisiae [3], 0.612.

As to RLIQPLPVQFLNY, the protein stability index in the data set on Saccharomyces cerevisiae [1] amounted to 0.433; in the data set on Saccharomyces cerevisiae [3] it was 0.641.

On to RLIQPLPVQKLN, for which the protein stability index with Saccharomyces cerevisiae [1] was 0.0688; in the data set on Saccharomyces cerevisiae [3] it was 0.809.

For the sequence RLIQPNPVQFLN, the protein stability index turned out to be 0.0748 in the data set on Saccharomyces cerevisiae [1] and 0.576 with Saccharomyces cerevisiae [3].

On to RLITPLPVQFLN, for which the protein stability index came to 0.0429 in the data set on Saccharomyces cerevisiae [1] and 0.605 with Saccharomyces cerevisiae [3].

RMIQPLPVQFLN: the values for the protein stability index in the data set on Saccharomyces cerevisiae [1] and in the data set on Saccharomyces cerevisiae [3] were 0.045 and 0.571, respectively.

With RTSCGYKFRTNN, the protein stability index in the data set with Saccharomyces cerevisiae [1] stood at 0.188; in the data set on Saccharomyces cerevisiae [3], 0.685.

SLIQPLPVQFLN: the protein stability index was found to be 0.0779 with Saccharomyces cerevisiae [1] and 0.618 with Saccharomyces cerevisiae [3].

On to TRGAVGGWRLVG, for which the values for the protein stability index in the data set on Saccharomyces cerevisiae [1] and with Saccharomyces cerevisiae [3] were 0.162 and 0.68, respectively.

On to VPGAVGGWRLVG, for which the figures for the protein stability index with Saccharomyces cerevisiae [1] and with Saccharomyces cerevisiae [3] were 0.139 and 0.667, respectively.

With VRGAVGGIRLVG, the figures for the protein stability index in the data set with Saccharomyces cerevisiae [1] and in the data set on Saccharomyces cerevisiae [3] were 0.589 and 0.682, respectively.

In the case of VRGAVGGRRLVG, the protein stability index came to 0.641 in the data set with Saccharomyces cerevisiae [1] and 0.675 with Saccharomyces cerevisiae [3].

As to VRGAVGGWELVG, the protein stability index in the data set on Saccharomyces cerevisiae [1] was 0.551; with Saccharomyces cerevisiae [3], 0.63.

As for VRGAVGGWRLDG, the results for the protein stability index with Saccharomyces cerevisiae [1] and with Saccharomyces cerevisiae [3] were 0.648 and 0.691, respectively.

As for VRGAVGGWRLVA, the protein stability index with Saccharomyces cerevisiae [1] worked out at 0.151; with Saccharomyces cerevisiae [3], 0.677.

For the sequence VRGAVGGWRLVD, the protein stability index came out at 0.615 in the data set with Saccharomyces cerevisiae [1] and 0.684 in the data set with Saccharomyces cerevisiae [3].

Regarding VRGAVGGWRLVGN, the protein stability index with Saccharomyces cerevisiae [1] came out at 0.639; in the data set on Saccharomyces cerevisiae [3], 0.67.

Turning to VRGAVGGWRLVGR, the protein stability index in the data set with Saccharomyces cerevisiae [1] came to 0.676; with Saccharomyces cerevisiae [3] it was 0.674.

VRGAVGGWRLVH: the values for the protein stability index in the data set on Saccharomyces cerevisiae [1] and with Saccharomyces cerevisiae [3] were 0.233 and 0.666, respectively.

As to VRGAVGGWRRVG, the protein stability index in the data set with Saccharomyces cerevisiae [1] came out at 0.163; in the data set on Saccharomyces cerevisiae [3], 0.67.

Take VRGAVGGWRSVG: the results for the protein stability index in the data set on Saccharomyces cerevisiae [1] and with Saccharomyces cerevisiae [3] were 0.342 and 0.664, respectively.

With VRGAVGGWYLVG, the protein stability index in the data set with Saccharomyces cerevisiae [1] amounted to 0.603; in the data set with Saccharomyces cerevisiae [3], 0.691.

In the case of VRGAVGQWRLVG, the results for the protein stability index in the data set on Saccharomyces cerevisiae [1] and with Saccharomyces cerevisiae [3] were 0.147 and 0.663, respectively.

As to VRGAVHGWRLVG, the protein stability index was determined as 0.155 in the data set on Saccharomyces cerevisiae [1] and 0.679 in the data set on Saccharomyces cerevisiae [3].

Consider VRGAVSGWRLVG, for which the protein stability index was 0.145 with Saccharomyces cerevisiae [1] and 0.683 in the data set on Saccharomyces cerevisiae [3].

Consider VRGEVGGWRLVG, for which the protein stability index with Saccharomyces cerevisiae [1] was found to be 0.119; in the data set with Saccharomyces cerevisiae [3] it was 0.606.

Turning to VRGFVGGWRLVG, the protein stability index is 0.145 in the data set with Saccharomyces cerevisiae [1] and 0.691 with Saccharomyces cerevisiae [3].

Regarding VRGNVGGWRLVG, the values for the protein stability index in the data set on Saccharomyces cerevisiae [1] and in the data set with Saccharomyces cerevisiae [3] were 0.109 and 0.667, respectively.

As to VRGPVGGWRLVG, the protein stability index was determined as 0.181 in the data set with Saccharomyces cerevisiae [1] and 0.682 with Saccharomyces cerevisiae [3].

For the sequence VRGVVGGWRLVG, the protein stability index with Saccharomyces cerevisiae [1] was 0.176; in the data set with Saccharomyces cerevisiae [3], 0.679.

Turning to VRLAVGGWRLVG, the values for the protein stability index in the data set on Saccharomyces cerevisiae [1] and in the data set with Saccharomyces cerevisiae [3] were 0.131 and 0.679, respectively.

On to VTGAVGGWRLVG, for which the protein stability index was 0.141 in the data set with Saccharomyces cerevisiae [1] and 0.672 in the data set on Saccharomyces cerevisiae [3].

With VVVYLSCVACIN, the protein stability index in the data set on Saccharomyces cerevisiae [1] worked out at 0.0234; in the data set with Saccharomyces cerevisiae [3], 0.0435.

For the sequence YSMRWTFRYWVN, the protein stability index in the data set on Saccharomyces cerevisiae [1] worked out at 0.042; in the data set on Saccharomyces cerevisiae [3] it was 0.495.
